Patent publication US20240218070A1 (MERUS N V, published 2024)

B1: anti-human FAP bivalent monospecific IgG comprising heavy chain variable region SEQ ID NO: 11 (antibody, V domains shown)
VH: EVQLVESGGGLVQPGGSLRLSCAASGFTFSSYAMIWVRQAPGKGLEWVSAISGSGGYTFNADSVKGRFTMSRDNSKNTLYLQMNSLRAEDTAVYYCAKRDGGYEGGAFDIWGQGTLVTVSS
VL: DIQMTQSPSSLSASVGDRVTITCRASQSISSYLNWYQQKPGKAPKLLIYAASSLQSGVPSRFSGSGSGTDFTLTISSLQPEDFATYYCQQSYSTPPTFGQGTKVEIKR
notes: IgG1 format, common light chain VK1-39/JK1
B2: anti-human FAP bivalent monospecific IgG comprising heavy chain variable region SEQ ID NO: 69 (antibody, V domains shown)
VH: EVQLVETGGGLIQPGGSLRLSCAASGFTVSSNYMSWVRQAPGKGLEWVSVIYSGGSTYYADSVKGRFTISRDNSKNTLYLQMNSLRAEDTAVYYCARGPTDAYPYLDYLWGQGTLVTVSS
VL: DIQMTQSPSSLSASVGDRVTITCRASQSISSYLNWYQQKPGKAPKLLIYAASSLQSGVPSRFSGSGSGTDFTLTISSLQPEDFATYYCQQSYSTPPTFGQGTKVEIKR
notes: IgG1 format, common light chain VK1-39/JK1; also called human/mouse cross-reactive FAP IgG
B3: anti-human FAP bivalent monospecific IgG comprising heavy chain variable region SEQ ID NO: 15 (antibody, V domains shown)
VH: QLQLQESGPGLVKPSETLSLTCTVSGGSISSSSYFWAWIRQPPGKGLEFIGNIYYSGSTYYNPSLKSRVTISVDTSKNQFSLKLSSVTAADTAVYYCARPSYYGSGNYYFAFWGQGTLVTVSS
VL: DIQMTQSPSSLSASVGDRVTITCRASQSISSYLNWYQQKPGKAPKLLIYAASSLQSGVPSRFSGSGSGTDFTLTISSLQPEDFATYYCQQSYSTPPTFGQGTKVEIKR
notes: as for B1
B4: anti-human FAP bivalent monospecific IgG comprising heavy chain variable region SEQ ID NO: 19 (antibody, V domains shown)
VH: EVQLVESGGGLVKPGGSLRLSCAASGFPFNYAWMSWVRQAPGKGLEWVGRIKPKTSGGATDYAAPVKDRFTISRDDSRNTLYLQMNSLKTEDTAVYYCSAREDIWNFFFDLWGQGTLVTVSS
VL: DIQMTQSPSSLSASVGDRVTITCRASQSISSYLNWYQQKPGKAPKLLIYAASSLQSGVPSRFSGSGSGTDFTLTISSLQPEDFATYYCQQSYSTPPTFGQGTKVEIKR
notes: as for B1

Assays:
[1] = target: T1, human FAP (huFAP) expressed on cells (human, UniProt Q12884 1-760); test: FACS, 293FF cells stably expressing huFAP, IgG at 2.5 ug/ml
T1 construct: also called WI-38 cells
T1 sequence: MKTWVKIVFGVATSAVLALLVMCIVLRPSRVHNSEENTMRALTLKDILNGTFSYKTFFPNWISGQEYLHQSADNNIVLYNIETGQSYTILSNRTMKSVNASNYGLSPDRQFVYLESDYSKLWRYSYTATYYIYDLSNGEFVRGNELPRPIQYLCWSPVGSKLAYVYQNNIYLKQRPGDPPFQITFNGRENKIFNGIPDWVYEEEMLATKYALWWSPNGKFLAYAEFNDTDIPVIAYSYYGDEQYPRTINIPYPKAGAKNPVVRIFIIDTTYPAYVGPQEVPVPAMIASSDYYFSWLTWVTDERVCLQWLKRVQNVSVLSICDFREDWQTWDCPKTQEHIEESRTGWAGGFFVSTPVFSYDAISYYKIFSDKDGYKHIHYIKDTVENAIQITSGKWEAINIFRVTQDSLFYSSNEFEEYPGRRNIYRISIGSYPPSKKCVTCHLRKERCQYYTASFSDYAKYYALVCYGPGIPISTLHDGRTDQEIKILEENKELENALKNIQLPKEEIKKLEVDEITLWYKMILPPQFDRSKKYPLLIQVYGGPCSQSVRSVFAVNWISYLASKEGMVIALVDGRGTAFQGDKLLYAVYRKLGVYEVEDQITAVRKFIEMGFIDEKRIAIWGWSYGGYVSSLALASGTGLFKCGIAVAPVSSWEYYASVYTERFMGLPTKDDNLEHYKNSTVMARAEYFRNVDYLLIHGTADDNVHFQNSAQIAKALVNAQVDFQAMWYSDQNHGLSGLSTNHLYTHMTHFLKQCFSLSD
Experimental: The binding of all test and control antibodies to the cells was tested at a single concentration of 2.5 ug/ml. Goat-anti-human IgG F(ab)2-PE (Invitrogen, H10104) was used as secondary antibody (1:100 in FACS buffer). Ab0625 was used at 10 ug/ml and its binding was detected using Ab0250 (Becton Dickinson, 550767) (1:100 in FACS buffer). The FACS buffer containing PBS (Gibco, cat. #10010-015), 0.5% BSA (Thermo Scientific, cat. #37525), and 2 mM EDTA (Invitrogen, cat. #15575-020) was kept ice cold throughout the assay.
The target cells were harvested, counted, and centrifuged for 5 min at 300 g at 4 °C. Cells were then resuspended in FACS buffer at a concentration of 1×10⁶ cells/ml and transferred (200,000 cells/well) to a U-bottom 96-well FACS plate (BD, cat. #353910). Cells were then centrifuged for 3 min at 300 g at 4° C. and supernatant was discarded. 50 μl of primary antibody solutions were added to the cells, mixed, and incubated for 30 min at 2-8° C. in the dark. Cells were washed by adding 150 μl FACS buffer and centrifuged for 3 min at 300 g at 4° C. Supernatant was discarded, and cells were washed again by adding 200 μl FACS buffer to the plate. Cells were then centrifuged for 3 min at 300 g at 4° C. and afterwards the supernatant was discarded. 50 μl of secondary antibody solutions were added to the cells, mixed, and incubated for 30 min at 2-8° C. in the dark. […]

[2] = target: T1, human FAP (huFAP) expressed on cells; test: FACS titration (10 ug/ml to 3.16 ng/ml) on WI-38 cells
Experimental: (§1) The human anti-FAP panel was tested on WI-38 cells (endogenously expressing huFAP) and binding was measured by FACS.
(§2) The target cells were harvested, counted, and centrifuged for 5 min at 300 g at 4° C. Cells were then resuspended in FACS buffer at a concentration of 1×10⁶ cells/ml and transferred (200,000 cells/well) to a U-bottom 96-well FACS plate (BD, cat. #353910). Cells were washed by adding 200 μl PBS and centrifuged for 3 min at 300 g at 4 °C. Cells were then centrifuged for 3 min at 300 g at 4° C. and supernatant was discarded. Antibodies were diluted in an 8 steps, semi-log dilution series ranging from 10 ug/ml to 3.16 ng/ml in FACS buffer (50 μ/well), mixed, and incubated for 30 min at 2-8° C. in the dark. A titration of the sibrotuzumab analog was included as positive control and used to normalize data. The negative control TT antibody was included as negative control. Cells were washed by adding 150 μl FACS buffer and centrifuged for 3 min at 300 g at 4° C. Supernatant was discarded, and cells were washed again by adding 200 μl FACS buffer to the plate. Cells were then centrifuged for 3 min at 300 g at 4° C. and afterwards the supernatant was discarded. […] Fluorescence intensity of the cells was then measured on the iQue VBR (Intellicyt).

[3] = target: T1, human FAP (huFAP) expressed on cells; test: FACS titration (10 ug/ml to 3.16 ng/ml) on WI-38 cells; positive control sibrotuzumab analog
Experimental: as §1, §2

Row | Binder | binding result [2] | other results
1 | B1 | – | binding result [1]: binds
2 | B2 | binds | –
3 | B3 | binds | –
4 | B4 | – | binding result [3]: binds
